Consider 81 sequences from the supplement of paper PMC9942255.

Where “and” joins values, the source holds several entries; their conditions need not be identical. Identical values can stand only once.

This data set concerns Bacillus subtilis DB104 (SP-AmyQ fusion secretion). Briefly: AmyQ secretion efficiency, weighted average sort bin (1 = best secretion, 10 = worst) (bin number (weighted average, 1-10)); higher = lower secretion efficiency. In a few lines: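 B. subtilis DB104 library expressing mature AmyQ fused to designed signal peptides (amyE-integrated) was encapsulated at about 0.3 cells per ~65 nL alginate bead with fluorescein-starch, grown about 13 h at room temperature and nile red stained. Occupied beads were sorted by large-particle flow cytometry into 10 equally populated bins by green/red fluorescence ratio, and each bin's amplicons were Illumina-sequenced. Secretion score is the read-frequency-weighted average bin number, normalised to beads per bin, excluding low-abundance sequences.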

With MKRFILVLSFLSIIVLVTSASSFLAYPIQTNASPM, the AmyQ secretion efficiency worked out at 5.04. The result for MKSKWMSGLLLVAVGFSFITQVMVHAGET reads 6.13; that for MKKWMAGLFLAAAVLLCLMVPQQGQGASS, 6.52; that for MKQGKFSVFLILLLMLTLVVAPKEKAEAAEE, 2.62. MKKTIMSFVAVAALSTTAFKRRHASAKEI came in with an AmyQ secretion efficiency of 7.04. On to MKKWMITIAMLILAGIALFVFISPLKWHKT, for which the AmyQ secretion efficiency was determined as 5.74.

For the sequence MRPVFPLILSAVLFLSCFFGARQTELSASKR, the AmyQ secretion efficiency was 3.47.

MKVLLSALLLLLFAFEPSNSGKKL registered an AmyQ secretion efficiency of 6.02.

In the case of MKKAAAVLLSLGLVFKKRRRKKHVAEAKTK, the AmyQ secretion efficiency was 7.39. Consider MKKRLIAPMLLIAAILAFFAMSGSAQAAAY, for which the AmyQ secretion efficiency worked out at 2.47. As for MGTTIIILLLAVIIAAAAAGVAFYV, the figure is 7.47. The result for MRNLTKYTTSKGGLCTAAQMVFVTHASAEES reads 7.66; that for MNLRKILLSSALSLGMLVSAAPQLATSS, 4.11.

As for MKKIWIGMLAAAVLLLRKPKVSLADAA, the AmyQ secretion efficiency was 7.91. Sequence MKSKWMSGLLLVAVGFSFTQVMTHAGET registered an AmyQ secretion efficiency of 7.1. The sequence MKRIRIPMTLALGAALTIAPLLSFASAEEN yielded an AmyQ secretion efficiency of 4.21. As for MSKVLMAFIICLSLILSVLAAPPSGAKAESV, the figure is 2.82. Sequence MKRLLVSLRVWMVFLMNWVTPDRKTSAAAVY came in with an AmyQ secretion efficiency of 5.14.

Sequence MRKKRVKRCKKKRSLTLGSLLPAGYASAKED yielded an AmyQ secretion efficiency of 7.22. Turning to MRPVFPLILSAVLFLSCFFGARQTEASTSKR, the AmyQ secretion efficiency was 2.25. Sequence MTGLWRSLALCGLALTLAPCAQAAEP registered an AmyQ secretion efficiency of 2.01. The sequence MKSKGSIMACLILFSFTITTFINTETISQFSN had an AmyQ secretion efficiency of 7.33. On to MRNLTKFLLLLAFLCMAAQMVFVTHASAEES, for which the AmyQ secretion efficiency was found to be 3.58. MTKKAWFLPLVCVLLISGWLAASAQTT: the AmyQ secretion efficiency was determined as 6.17. The result for MKKQIITATTAVVLGSTLFASPASAQSI reads 1.55.

Sequence MRRRWRSLALCGLALTLAPCAQAAEP had an AmyQ secretion efficiency of 2.05. As for MFKFKKNFLFLVGLSAALMSISLFSATASAAST, the figure is 1.42; as for MKKTIMSFVAVAALSTTAFGAHCSAKEI, 2.42. The result for MKRKLRRKRRKSALSLGLLVSAPTASFAAES reads 7.05; that for MKKKLAAGLTASAIVGTTLVVTPAEAARK, 3.53.

MSSYIKVLTMCFLGLILFVPTALADNS gave an AmyQ secretion efficiency of 1.7.

Turning to MKVLLSALLLLLFAFEPSESGKKL, the AmyQ secretion efficiency stood at 6.5. As for MKSCKQLIVCSLAAILLLIPSVSFAAPD, the figure is 2.43; as for MRPVFPLILSAVLFLSCFFGARQTEASVSKR, 2.77; as for MKRMIVRMTLPLLIVCLAFSSFSASARAEEE, 3.68. As for MKRSISIFITCLLITLLKRKGMIASPASAAGT, the figure is 5.06; as for MTMLRKIIGWILLLCIIPLFAFTVIASVKEV, 7.89.

Turning to MKRKLLSSLAISALSLGLLVSAPTAWFAAES, the AmyQ secretion efficiency was 9.22.

MKNMSCKLVVSVTLFFSFLTIGPLAHAKRK: the AmyQ secretion efficiency was determined as 2.49. As for MKKLCVMMLLFSAIASFPVSAQAKDQ, the AmyQ secretion efficiency is 2.86. The result for MKKKLAAGLTASAIVGTTLVVTPAEVATI reads 6.56; that for MIVIRKRKISIIVFLSVIQPQPS, 5.82. As for MKRFLIGAGVAAVILDDEEEADHQTHSQEM, the figure is 7.2; as for MMKKGLLAGALTATVLFGTCAVDVPKAEAASQ, 1.63. The sequence MFKKHTISLLIIFLLASAVLAKPIEARKK registered an AmyQ secretion efficiency of 2.26. The result for MHLIRAAGAVCLAVVLIAGCRKKKRKRHRAEGENT reads 7.2; that for MLKKIALILCIAIVFFLLFFSAPASAHVS, 3.76; that for MKKWMITIAMLILAGIALFVFISPLKRHKT, 7.32. The sequence MKKVVLVLSIAGIGGFSVHAASS showed an AmyQ secretion efficiency of 6.91. As to MRGTSVVGFLSVLGLAAVFPLTAQAEKA, the AmyQ secretion efficiency stood at 2.91.

As for MKKRKRKTLVVLFTIVTFGLVSPPAALMADKP, the AmyQ secretion efficiency is 2.34. As for MFNRLFRVCFLAALIMAFTLPNSVYEQKP, the figure is 7.29; as for MKRIRIPMTLALGAALTIAPLSFASMEEN, 6.12; as for MKRKRRKMACLILFSFTITTFINTETISAFSN, 2.31. The result for MGLGKKLSVAVAASFMSLSISLPGVQWAEG reads 3.19.

MKKKQVMLALTAAAGLGLTALHSAPAAKGAPL showed an AmyQ secretion efficiency of 3.51.

MNLRKIILLSSALSLGMLVSAAPVLATSS came in with an AmyQ secretion efficiency of 2.82. In the case of MFNRLRVCFLAALIMAFTLPNSVYAQKP, the AmyQ secretion efficiency amounted to 2. The result for MRKYTVIASILLSFLSVLSGGHHESKARRR reads 7.19; that for MKQGKFSSFLILLLMLTLVVAPKEKAEAASS, 2.33; that for MKLSVKIAGVLTVAAAAMTAKMYATNKGN, 6.32. The sequence MKKRRAIIIAIIAAVIVIAALITFNVRNASPG showed an AmyQ secretion efficiency of 5.35. MLKKIALTLCPAIVGSLLFFTAPASAHKK: the AmyQ secretion efficiency came to 1.72.

With MPIFKKVMMCLAVTLVFGSMSFPTLTNSGGFKE, the AmyQ secretion efficiency is 6.15. Regarding MKKRLIAPMLLSAASLAFFAMSGSGQAAAY, the AmyQ secretion efficiency was 5.16.

Regarding MTMLRKIIGWILLLCIIPLFAFTVIASWKEV, the AmyQ secretion efficiency is 5.23.

Sequence MTKVMLATALFLGLTPAGANAADL yielded an AmyQ secretion efficiency of 5.8. For the sequence MKRLLSTLLIGIMLLTFAPSAFAAQD, the AmyQ secretion efficiency worked out at 1.6.

Take MKLSVKIAGVLTVAAAAMTAKMYPTAKGN: the AmyQ secretion efficiency was 5.7.

Sequence MAIIIAIIAAVIVIAALITFNVVNASPG showed an AmyQ secretion efficiency of 8.99.

Sequence MGKRGGSGSSLFISSAVLLSILLPSGQAHAQSA yielded an AmyQ secretion efficiency of 1.07.

With MKTKTLFIFSAILTLSIEDEDEETFAQTA, the AmyQ secretion efficiency was 5.99. As for MPYLMMVLLLLVTGLFMSLFAVTATASAQTG, the figure is 1.47. The result for MKMKSGMEQAVSVLLLLSRLPVQASLTSE reads 7.57 and 7.03; that for MPYLKRVLLLLVTGLFMSLFRKKATASAQTG, 7.42.

As for MPYLKRVLLLLVTGLFMSLFAVTATASAQRK, the AmyQ secretion efficiency is 2.03. The result for MKSKGSIMACLILFSFTITTFINTETISLFSN reads 7.29; that for MMTMLFHSTLIVLLFFSFFGVQPIHAKKQ, 2.1; that for MKKRITYSGSQLLAVVAFAFTDSSKAKAAEA, 8.92. As for MKRIRIPMTLALGAALTIAPLSASAEEN, the figure is 2.88; as for MKSKWMSGLLLVAVGFSFIALFATQVMVHAGET, 7.59.
